Test [1] deals with EGFR-CD3 bispecific antibody 401. The test can be described thus: BLI self-interaction: antibody captured on AHQ anti-human Fc sensor, free sites blocked with human IgG, same antibody in solution.
For test [2], the target named is HER2-CD3 bispecific antibody 504. Described as above.

Changes are numbered by the printed parent chain.

B1: EGFR-CD3 bispecific antibody 401 (bispecific antibody, human IgG4 S228P, kappa, F234A L235A)
heavy: EVKLLESGGGLVQPKGSLKLSCAASGFTFNTYAMNWVRQAPGKGLEWVARIRSKYNNYATYYADSVKDRFTISRDDSQSILYLQMNNLKTEDTAMYYCVRHGNFGNSYVSWFAYWGQGTLVTVSSASTKGPSVFPLAPCSRSTSESTAALGCLVKDYFPEPVTVSWNSGALTSGVHTFPAVLQSSGLYSLSSVVTVPSSSLGTKTYTCNVDHKPSNTKVDKRVESKYGPPCPPCPAPEAAGGPSVFLFPPKPKDTLMISRTPEVTCVVVDVSQEDPEVQFNWYVDGVEVHNAKTKPREEQFNSTYRVVSVLTVLHQDWLNGKEYKCKVSNKGLPSSIEKTISKAKGQPREPQVYTLPPCQEEMTKNQVSLWCLVKGFYPSDIAVEWESNGQPENNYKTTPPVLDSDGSFFLYSRLTVDKSRWQEGNVFSCSVMHEALHNHYTQKSLSLSL
chain: QVQLQESGGGSVQAGGSLKLSCAASGRGFSRYAMGWFRQAPGQDREFVATISWTNSTDYADSVKGRFAISRDNAKNTAYLQMNSLKPEDTAVYYCAADKWASSTRSIDYDYWGQGIQVTVSSESKYGPPCPPCPAPEAAGGPSVFLFPPKPKDTLMISRTPEVTCVVVDVSQEDPEVQFNWYVDGVEVHNAKTKPREEQFNSTYRVVSVLTVLHQDWLNGKEYKCKVSNKGLPSSIEKTISKAKGQPREPQVCTLPPSQEEMTKNQVSLSCAVKGFYPSDIAVEWESNGQPENNYKTTPPVLDSDGSFFLVSRLTVDKSRWQEGNVFSCSVMHEALHNRFTQKSLSLSL
light: QAVVTQESALTTSPGETVTLTCRSSTGAVTTSNYANWVQEKPDHLFTGLIGGTNKRAPGVPARFSGSLIGDKAALTITGAQTEDEAIYFCALWYSNLWVFGGGTKVEIKRTVAAPSVFIFPPSDEQLKSGTASVVCLLNNFYPREAKVQWKVDNALQSGNSQESVTEQDSKDSTYSLSSTLTLSKADYEKHKVYACEVTHQGLSSPVTKSFNRGEC
The molecule B1 gave a BLI-Response (self-interaction signal) in test [1] of 0.043 nm.

B2: HER2-CD3 bispecific antibody 504 (bispecific antibody, human IgG4 S228P, kappa, F234A L235A)
chain: QVQLVQSGGGLVQAGGSLRLSCAASGRTFSSYAMAWFRQAPGKEREFVAAISWSGANIYVADSVKGRFTISRDNAKDTVYLQMNSLKPEDTAVYYCAVKLGFAPVEERQYDYWGQGTQVTVSSESKYGPPCPPCPAPEAAGGPSVFLFPPKPKDTLMISRTPEVTCVVVDVSQEDPEVQFNWYVDGVEVHNAKTKPREEQFNSTYRVVSVLTVLHQDWLNGKEYKCKVSNKGLPSSIEKTISKAKGQPREPQVYTLPPCQEEMTKNQVSLWCLVKGFYPSDIAVEWESNGQPENNYKTTPPVLDSDGSFFLYSRLTVDKSRWQEGNVFSCSVMHEALHNHYTQKSLSLSL
heavy: B1 heavy with Y354C, C359S, W371S, L373A, Y412V, H440R, Y441F
light: B1 light
In the case of B2, in test [2], the BLI-Response (self-interaction signal) came out at 0.07 nm.

These data come from US20240400715A1.
